Earlier results as cited in article doi:10.1101/429795.

Target: Cys164 (UniProt position 164, MYQQGCFAGGT)
Assay: chemical modification

In the case of “Chalcone synthase (MsCHS; CHS2) (Medicago sativa)”, the pKa is given as 5.5.
